Tests used:
BIR1 C12A/S87A/N28C-GdI = BIR1 C12A/S87A/N28C-GdI (UniProt P98170); assay: DEER
DEER [1] = biological target: the molecule itself; assay: DEER
NMR titration = biological target: the molecule itself; assay: NMR titration
DEER [2] = biological target: the molecule itself; assay: DEER; remark: listed apart in the source

Row | Molecule | Kd (DEER [1]) [µM] | other results
1 | BIR1 C12A/S87A/N28C-GdI (from UniProt P98170 10-99) (domain or fragment) |  | Kd (BIR1 C12A/S87A/N28C-GdI): 97.5 µM
2 | WT BIR1 C12-GdI (first baculoviral IAP repeat domain of XIAP, spin-labelled at C12 with BrPSPy-DO3A-Gd3+) (domain or fragment, BrPSPy-DO3A-Gd3+ (GdI) spin label on C12 via a thioether bond) KTCVPADINKEEEFVEEFNRLKTFANFPSGSPVSASTLARAGFLYTGEGDTVRCFSCHAAVDRWQYGDSAVGRHRKVSPNCRFINGFYLE | 126 ± 40 | 
3 | BIR1 C12A/K19C-GdI (domain or fragment, BrPSPy-DO3A-Gd3+ (GdI) spin label on C19 (K19C) via a thioether bond) KTAVPADINCEEEFVEEFNRLKTFANFPSGSPVSASTLARAGFLYTGEGDTVRCFSCHAAVDRWQYGDSAVGRHRKVSPNCRFINGFYLE | 126 ± 40 | 
4 | S87A BIR1 mutant, without spin label (domain or fragment, 15N isotope-labelled (NMR samples)) KTCVPADINKEEEFVEEFNRLKTFANFPSGSPVSASTLARAGFLYTGEGDTVRCFSCHAAVDRWQYGDSAVGRHRKVAPNCRFINGFYLE |  | Kd (NMR titration): 20.3 ± 4.6 µM
5 | BIR1 C12A/V24C-GdI (domain or fragment, BrPSPy-DO3A-Gd3+ (GdI) spin label on C24 (V24C) via a thioether bond) KTAVPADINKEEEFCEEFNRLKTFANFPSGSPVSASTLARAGFLYTGEGDTVRCFSCHAAVDRWQYGDSAVGRHRKVSPNCRFINGFYLE | 126 ± 40 | 
6 | BIR1 C12A/E22C-GdI (domain or fragment, BrPSPy-DO3A-Gd3+ (GdI) spin label on C22 (E22C) via a thioether bond) KTAVPADINKEECFVEEFNRLKTFANFPSGSPVSASTLARAGFLYTGEGDTVRCFSCHAAVDRWQYGDSAVGRHRKVSPNCRFINGFYLE | 126 ± 40 | 
7 | BIR1 C12A/N28C-GdI (domain or fragment, BrPSPy-DO3A-Gd3+ (GdI) spin label on C28 (N28C) via a thioether bond) KTAVPADINKEEEFVEEFCRLKTFANFPSGSPVSASTLARAGFLYTGEGDTVRCFSCHAAVDRWQYGDSAVGRHRKVSPNCRFINGFYLE | 126 ± 40 | Kd (DEER [2]): 11.3 ± 3.8 µM
8 | WT BIR1 (first baculoviral IAP repeat domain of XIAP), without spin label (domain or fragment, 15N isotope-labelled (NMR samples)) KTCVPADINKEEEFVEEFNRLKTFANFPSGSPVSASTLARAGFLYTGEGDTVRCFSCHAAVDRWQYGDSAVGRHRKVSPNCRFINGFYLE |  | Kd (NMR titration): 4.7 ± 2 µM

Source: publication doi:10.1101/2020.03.27.011510 (bioRxiv, 2020)
